B1: r11_951_TrROS_Hall (parent)
chain: KKKYVIKVYFEDTGKEVEIEAESKEEALEAAKRLAEELGLKIKKVEIYP

Variants of: B1
Experiment: folding stability dG (cDNA display proteolysis); higher = more stable
Conditions: PBS, room temperature

Folding stability dG [kcal/mol]: each site, then its substitutions
E25: L 4.18 | A 4.4 | M 4.32 | G 4.15 | S 4.12 | H 4.39 | V 4.36 | R 4.22 | Q 4.18 | C 4.28 | F 4.34 | D 4.58 | I 4.27 | W 4.25 | T 4.28 | N 4.16 | P 4.16 | K 4.22 | Y 4.33
A31: D 0.894 | H 2.62 | G 4.15 | C 4.18 | E 2.11 | F 4.48 | I 4.2
L28: W 4.64 | R 4.23 | I 4.42 | C 4.12 | P 3.39 | F 4.31 | E 4.28 | M 4.46 | S 4.2 | Q 4.31 | A 4.28 | D 4.11 | T 4.16 | V 4.51 | H 4.44 | N 4.33 | Y 4.57 | K 4.28 | G 4.17
E29: L 4.94 | I 4.48 | N 4.53 | A 4.75 | D 4.44 | M 4.77 | P 3.83 | R 4.64 | V 4.53 | T 4.71 | S 4.56 | C 4.58 | K 4.53 | H 4.51 | Q 4.22 | G 4.29
E26: D 4.32 | F 4.83 | Y 4.83 | A 4.66 | N 4.33 | V 4.24 | L 4.46 | W 4.92 | K 4.24 | P 3.07 | I 4.22 | G 4.58 | M 4.38 | C 4.23 | T 4.28 | Q 4.36 | S 4.39 | R 4.39 | H 4.5
S23: H 4.08 | R 4 | P 2.12 | W 4.13 | G 4.06 | M 3.83 | Q 3.89 | K 3.92 | N 4.38 | A 4.08 | I 4 | V 3.91 | L 4.01 | T 4.35 | D 4.31 | Y 3.98 | C 4.05 | F 4.26 | E 4.22
E22: M 4.07 | K 4.05 | T 4.23 | Y 4.52 | R 4.18 | V 4.29 | Q 4.11 | N 4.38 | W 4.64 | S 4.25 | P 4.4 | L 4.26
A27: S 4.03 | M 3.71 | G 4.68 | N 2.01 | F 3.8 | E 1.78 | Q 2.23 | L 4.34 | P 2.74 | W 3.93 | K 1.74 | R 1.78 | C 4.23 | D 1.49 | I 4.09 | V 4.38 | T 3.58 | H 2.78 | Y 3.79
A30: G 4.4 | Y 4.89 | S 4.45 | V 4.44 | E 4.31 | K 4.33 | F 4.66 | Q 4.44 | M 4.47 | C 4.16 | N 4.41 | P 2.07 | D 4.16 | L 4.66 | H 4.57 | T 4.38 | R 4.58 | I 4.49
K24: H 4.45 | D 4.37 | A 4.55 | Y 4.5 | S 4.29 | I 4.52 | P 4.19 | F 4.32 | G 4.41 | N 4.46 | M 4.46 | W 4.51 | L 4.48 | V 4.6 | C 4.53 | E 4.54 | T 4.57 | Q 4.38 | R 4.3

— the MegaScale stability set (Tsuboyama et al. 2023)
